{"source": "paper PMC8643467", "about": "“Appearance of peanut agglutinin in the blood circulation after peanut ingestion promotes endothelial secretion of metastasis-promoting cytokines” (Carcinogenesis, 2021)", "binders": {"B1": {"name": "Peanut agglutinin (PNA), agarose-conjugated (natural protein, Arachis hypogaea, UniProt P02872 24-273, looked up)", "chain": "AETVSFNFNSFSEGNPAINFQGDVTVLSNGNIQLTNLNKVNSVGRVLYAMPVRIWSSATGNVASFLTSFSFEMKDIKDYDPADGIIFFIAPEDTQIPAGSIGGGTLGVSDTKGAGHFVGVEFDTYSNSEYNDPPTDHVGIDVNSVDSVKTVPWNSVSGAVVKVTVIYDSSTKTLSVAVTNDNGDITTIAQVVDLKAKLPERVKFGFSASGSLGGRQIHLIRSWSFTSTLITTTRRSIDNNEKKIMNMASA"}}, "target": "MCAM (CD146), melanoma cell adhesion molecule (human (endogenous in HUVECs), UniProt P43121 24-646)", "assay": "cell-based or functional assay"}
{"binder": "B1", "values": [{"measurement": "IL-6 secretion from HUVECs by ELISA, dose series of PNA, highest after 24 h with 8 μg/ml PNA", "value": 3, "unit": "fold"}, {"measurement": "MCP-1 secretion from HUVECs by ELISA, dose series of PNA, highest after 24 h with 8 μg/ml PNA", "value": 13, "unit": "fold"}]}
